From publication PMC4690985 come the findings set out here.

Assay [1] deals with TNH αβγ trimer (Streptomyces rimosus) (UniProt B6CWJ3). Kind of assay: native MS.
Assay [2] concerns the target Toyocamycin nitrile hydratase (TNH) α subunit (Streptomyces rimosus) (UniProt B6CWJ3). Kind of assay: native MS.

One may read the stoichiometry N as the number of molecules, sites or subunits per partner or assembly. Regarding “TNH αβγ trimer (from UniProt B6CWJ3 1-195) (complex)”, in assay [1], the stoichiometry N was found to be 2.

As to “Toyocamycin nitrile hydratase (TNH) β subunit (natural protein)”, the abundance of the αβ dimer among the SID products (αβγ trimer = 100%) in assay [2] was 32%.
